Columns and labels:
GRFT D30A (red algae) = GRFT D30A (red algae) (UniProt P84801); experiment: AUC
[1] = target: recombinant gp120 from HIV-1(ADA) strain (HIV-1 (ADA)); experiment: ELISA
[2] = target: recombinant gp120 from HIV-1(ADA) strain (HIV-1 (ADA)); experiment: SPR
[3] = target: recombinant gp120 from HIV-1(IIIB) strain, glycosylated (HIV-1 (IIIB)) (UniProt P04578); experiment: SPR
[4] = target: recombinant gp41 protein from HIV-1(HxB2) (HIV-1 (HxB2)) (UniProt P04578); experiment: SPR
GRFT D112A (red algae) = GRFT D112A (red algae) (UniProt P84801); experiment: AUC
[5] = target: wild-type griffithsin (GRFT) (red algae) (UniProt P84801); experiment: AUC
[6] = target: monomeric gp120 derived from HIV-1/JR-FL (HIV-1 (JR-FL)); experiment: SPR
[7] = target: trimeric gp140 derived from HIV-1/JR-FL (HIV-1 (JR-FL)); experiment: SPR

Substance | stoichiometry N (GRFT D30A (red algae)) | fold reduction in binding against wild-type GRFT [1] [fold] | Kd [2] [nM] | Kd [3] [nM] | Kd [4] [nM] | stoichiometry N (GRFT D112A (red algae)) | stoichiometry N [5] | Kd [6] [nM] | Kd [7] [nM]
GRFT D30A (from UniProt P84801 1-121) (natural protein) | 2 | 10 | 0.123 | 0.156 |  |  |  |  | 
GRFT D70A (from UniProt P84801 1-121) (natural protein) |  | 10 | 0.194 | 0.245 | 0.165 |  |  |  | 
GRFT D112A (from UniProt P84801 1-121) (natural protein) |  | 10 | 0.122 | 0.142 | 0.131 | 2 |  |  | 
wild-type griffithsin (GRFT) (from UniProt P84801 1-121) (natural protein) |  |  | 0.0732 | 0.0727 | 0.0449 |  | 2 | 0.111 | 0.152
